Experimental findings from article PMC10786891, “Massively parallel profiling of RNA-targeting CRISPR-Cas13d” are described below.

The labels stand for the following.
T1: EsCas13d, nuclease-dead (Eubacterium siraeum, UniProt B0MS50, R295A;H300A;R849A;H854A)
T1 sequence: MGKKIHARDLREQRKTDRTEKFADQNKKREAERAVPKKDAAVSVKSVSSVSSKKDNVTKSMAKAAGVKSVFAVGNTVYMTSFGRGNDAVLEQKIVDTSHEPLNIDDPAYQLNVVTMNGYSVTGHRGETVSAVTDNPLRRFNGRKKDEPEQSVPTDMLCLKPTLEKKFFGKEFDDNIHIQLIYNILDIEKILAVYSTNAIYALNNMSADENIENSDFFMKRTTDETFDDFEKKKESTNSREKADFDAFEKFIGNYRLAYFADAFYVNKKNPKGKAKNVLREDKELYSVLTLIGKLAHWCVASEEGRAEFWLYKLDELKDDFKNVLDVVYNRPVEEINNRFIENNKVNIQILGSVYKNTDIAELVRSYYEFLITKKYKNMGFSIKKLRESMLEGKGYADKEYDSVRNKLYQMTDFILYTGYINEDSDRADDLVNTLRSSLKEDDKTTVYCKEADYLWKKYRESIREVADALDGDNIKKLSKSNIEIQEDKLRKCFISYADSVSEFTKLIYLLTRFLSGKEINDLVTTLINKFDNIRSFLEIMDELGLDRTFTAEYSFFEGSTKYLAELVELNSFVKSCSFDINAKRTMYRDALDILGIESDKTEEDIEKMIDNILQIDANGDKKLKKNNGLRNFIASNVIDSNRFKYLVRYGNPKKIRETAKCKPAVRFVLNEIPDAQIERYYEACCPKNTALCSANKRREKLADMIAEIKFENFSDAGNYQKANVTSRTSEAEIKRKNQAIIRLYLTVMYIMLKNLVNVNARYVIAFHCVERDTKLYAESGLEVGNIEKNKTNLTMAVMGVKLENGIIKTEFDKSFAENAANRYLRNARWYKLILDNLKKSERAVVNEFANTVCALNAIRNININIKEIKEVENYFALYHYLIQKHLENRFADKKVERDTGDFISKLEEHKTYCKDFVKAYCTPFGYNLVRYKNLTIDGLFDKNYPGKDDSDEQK

B1: target 1 del3,del5 (mixed)
RNA 1: CACCCGUGCAAAAAUGCAGGGGUCUAAAACUGAGCGGAUAACCUCUCUAUGG
RNA 2: GGGAAUGGAUCCACAUCUACGAAUUCGUACCAUAGAGAGGUUAUCCCCACCGAGAUCGGAAGAGCACACGU
B2: target 1 U10C,G12A (mixed)
RNA 1: B1 RNA 1
RNA 2: GGGAAUGGAUCCACAUCUACGAAUUCGUACCAUAGAGAGAUCAUCCGCUCACCGAGAUCGGAAGAGCACACGU
B3: target 1 del13,del19 (mixed)
RNA 1: B1 RNA 1
RNA 2: GGGAAUGGAUCCACAUCUACGAAUUCGUACCAAGAGAGUUAUCCGCUCACCGAGAUCGGAAGAGCACACGU
B4: target 1 G17A,A18G (mixed)
RNA 1: B1 RNA 1
RNA 2: B2 RNA 2 with A34G, G35A, A40G, C42U
B5: target 1 A9G,U11C (mixed)
RNA 1: B1 RNA 1
RNA 2: B2 RNA 2 with A40G, U41C, C42U, A43G
B6: target 1 insA 3' of 2,insU 3' of 2 (mixed)
RNA 1: B1 RNA 1
RNA 2: GGGAAUGGAUCCACAUCUACGAAUUCGUACCAUAGAGAGGUUAUCCGCUCAUACCGAGAUCGGAAGAGCACACGU
B7: target 1 insC 3' of 13,insC 3' of 9 (mixed)
RNA 1: B1 RNA 1
RNA 2: B6 RNA 2 with G40C, U41G, A43U, U44A, C46U, G47C, U49G, A51U, U52C
B8: target 1 insA 3' of 7,insC 3' of 5 (mixed)
RNA 1: B1 RNA 1
RNA 2: B6 RNA 2 with C46A, G47C, C48G, U49C, A51U, U52C
B9: target 1 insC 3' of 9,insG 3' of 7 (mixed)
RNA 1: B1 RNA 1
RNA 2: B6 RNA 2 with U44C, C45U, U49G, A51U, U52C
B10: target 1 insC 3' of 20,insA 3' of 4 (mixed)
RNA 1: B1 RNA 1
RNA 2: GGGAAUGGAUCCACAUCUACGAAUUCGUACCACUAGAGAGGUUAUCCGCAUCACCGAGAUCGGAAGAGCACACGU
B11: target 1 insG 3' of 20,insC 3' of 15 (mixed)
RNA 1: B1 RNA 1
RNA 2: GGGAAUGGAUCCACAUCUACGAAUUCGUACCAGUAGAGCAGGUUAUCCGCUCACCGAGAUCGGAAGAGCACACGU
B12: target 1 G12C,A14G (mixed)
RNA 1: B1 RNA 1
RNA 2: B2 RNA 2 with A38G, A40C, C42U
B13: target 1 insU 3' of 6,insC 3' of 1 (mixed)
RNA 1: B1 RNA 1
RNA 2: B6 RNA 2 with G47U, C48G, U49C, C50U, A51C, U52A, A53C
B14: target 1 G5A,C6G (mixed)
RNA 1: B1 RNA 1
RNA 2: B2 RNA 2 with A40G, C42U, C46G, G47A
B15: target 1 insU 3' of 6,insU 3' of 1 (mixed)
RNA 1: B1 RNA 1
RNA 2: B6 RNA 2 with G47U, C48G, U49C, C50U, A51C, U52A, A53U
B16: target 1 G5C,U19A (mixed)
RNA 1: B1 RNA 1
RNA 2: B2 RNA 2 with U33A, A40G, C42U, G47C
B17: target 1 insA 3' of 3,insU 3' of 2 (mixed)
RNA 1: B1 RNA 1
RNA 2: B6 RNA 2 with C50A, A51C
B18: target 1 C7A,A16U (mixed)
RNA 1: B1 RNA 1
RNA 2: B2 RNA 2 with A36U, A40G, C42U, C45A
B19: target 1 insG 3' of 14,insG 3' of 10 (mixed)
RNA 1: B1 RNA 1
RNA 2: B6 RNA 2 with U41G, A43U, U44G, C45A, C46U, G47C, U49G, A51U, U52C
B20: target 1 U3C,A9U (mixed)
RNA 1: B1 RNA 1
RNA 2: B2 RNA 2 with A40G, C42U, A43U, U49C
B21: target 1 A16G,G17A (mixed)
RNA 1: B1 RNA 1
RNA 2: B2 RNA 2 with G35A, A36G, A40G, C42U
B22: target 1 insA 3' of 17,insU 3' of 14 (mixed)
RNA 1: B1 RNA 1
RNA 2: B11 RNA 2 with G33U, U34A, A35G, G36A, C39A, A40U
B23: target 1 insU 3' of 14,insA 3' of 5 (mixed)
RNA 1: B1 RNA 1
RNA 2: B10 RNA 2 with C33U, U34A, A35G, G36A, A37G, G38A, A39U, C49A, A50C
B24: target 1 insU 3' of 6,insA 3' of 2 (mixed)
RNA 1: B1 RNA 1
RNA 2: B6 RNA 2 with G47U, C48G, U49C, C50U, A51C, U52A
B25: target 1 C4A,A14C (mixed)
RNA 1: B1 RNA 1
RNA 2: B2 RNA 2 with A38C, A40G, C42U, C48A
B26: target 1 C6A,G15U (mixed)
RNA 1: B1 RNA 1
RNA 2: B2 RNA 2 with G37U, A40G, C42U, C46A
B27: target 1 C2U,G13A (mixed)
RNA 1: B1 RNA 1
RNA 2: B2 RNA 2 with G39A, A40G, C42U, C50U
B28: target 1 G5C,G13C (mixed)
RNA 1: B1 RNA 1
RNA 2: B2 RNA 2 with G39C, A40G, C42U, G47C

Substitutions are numbered along the chain they refer to. Numbers in names are those of the source.

The data set has as its target T1, EsCas13d, nuclease-dead. Briefly: crRNA (strand 1, pre-loaded); Mg2+; 40 mM Tris-HCl pH 7.5, 150 mM NaCl, 6 mM MgCl2, 1 mM DTT, 0.1% Tween-20, 0.2 mg/ml BSA; 25 C; 10 min per concentration, then washed. The following applies: tags: His6-TwinStrep-SUMO cleaved; N-terminal SNAP kept (SNAP-Surface 488); label: 3' end held by stalled T7 RNA polymerase.
In general, Kd refers to the free concentration of one partner at which half of the binding sites on the other are occupied at equilibrium, for simple one-to-one binding. Higher therefore signals a looser complex. Molecule B1 had a Kd of 15.8 ± 0.9 nM.

The molecule B2 displayed a Kd of 13.8 ± 0.6 nM. Consider B3, for which the Kd was determined as 80 ± 28 nM.

Molecule B4 returned a Kd of 81 ± 22 nM. In turn, B5 gave a Kd of 12.1 ± 0.5 nM. For B6, binding was characterised by a dissociation constant (Kd) of 12 ± 0.7 nM. B7: the Kd was 17.9 ± 1.1 nM.

The molecule B8 gave a Kd of 11.1 ± 0.5 nM. The value for B9 was 11.4 ± 0.7 nM. The value for B10 was 6.4 ± 0.4 nM.

In turn, B11 registered a Kd of 89 ± 33 nM. Under B12 stands 27.5 ± 3.1 nM; under B13, 11.7 ± 0.8 nM. Molecule B14 gave a Kd of 8 ± 0.4 nM. B15 registered a Kd of 14.1 ± 1.4 nM.

For B16, binding was characterised by a dissociation constant (Kd) of 34.1 ± 3 nM.

Regarding B17, binding was characterised by a dissociation constant (Kd) of 9 ± 0.6 nM.

Consider B18, for which binding was put at a Kd of 42.2 ± 2.5 nM. In turn, B19 showed a Kd of 16.7 ± 1 nM. The molecule B20 displayed a Kd of 44 ± 6 nM. Turning to B21, the dissociation constant (Kd) stood at 84 ± 30 nM. The value for B22 was 62 ± 11 nM; that for B23 was 28.7 ± 3 nM; that for B24 was 12.8 ± 0.8 nM. The value for B25 was 11.9 ± 1.3 nM.

The molecule B26 registered a Kd of 27.5 ± 1.6 nM. Under B27 stands 5.7 ± 0.33 nM; under B28, 41 ± 5 nM.
